Data taken from paper PMC4148139 (Biochemistry, 2014).

T1: FADD DD (death domain of Fas-associated protein with death domain, residues 93-184), His-tagged (UniProt Q13158 93-184)
T1 sequence (looked up): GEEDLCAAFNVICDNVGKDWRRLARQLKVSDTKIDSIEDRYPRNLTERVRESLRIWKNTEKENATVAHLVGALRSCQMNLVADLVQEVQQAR


Target: T1, FADD DD (death domain of Fas-associated …)
Experiment: SEC-MALS

Binder	stoichiometry N
RIP1 DD (death domain of receptor interaction protein kinase 1, residues 583-664), His-tagged (domain or fragment, UniProt Q13546 583-664, looked up) TDKHLDPIRENLGKHWKNCARKLGFTQSQIDEIDHDYERDGLKEKVYQMLQKWVMREGIKGATVGKLAQALHQCSRIDLLSS	~1 RIP1 DD per FADD DD (5:5)
GST-tagged RIP1 DD (domain or fragment, UniProt Q13546 583-664, looked up) TDKHLDPIRENLGKHWKNCARKLGFTQSQIDEIDHDYERDGLKEKVYQMLQKWVMREGIKGATVGKLAQALHQCSRIDLLSS	1 GST-RIP1 DD per FADD DD (5:5)
